The values that follow come from article doi:10.1101/2021.03.03.433707 (bioRxiv, 2021).

T1: MukB, full length, wild type (E. coli, UniProt P22523 1-1486)
T1 sequence (looked up): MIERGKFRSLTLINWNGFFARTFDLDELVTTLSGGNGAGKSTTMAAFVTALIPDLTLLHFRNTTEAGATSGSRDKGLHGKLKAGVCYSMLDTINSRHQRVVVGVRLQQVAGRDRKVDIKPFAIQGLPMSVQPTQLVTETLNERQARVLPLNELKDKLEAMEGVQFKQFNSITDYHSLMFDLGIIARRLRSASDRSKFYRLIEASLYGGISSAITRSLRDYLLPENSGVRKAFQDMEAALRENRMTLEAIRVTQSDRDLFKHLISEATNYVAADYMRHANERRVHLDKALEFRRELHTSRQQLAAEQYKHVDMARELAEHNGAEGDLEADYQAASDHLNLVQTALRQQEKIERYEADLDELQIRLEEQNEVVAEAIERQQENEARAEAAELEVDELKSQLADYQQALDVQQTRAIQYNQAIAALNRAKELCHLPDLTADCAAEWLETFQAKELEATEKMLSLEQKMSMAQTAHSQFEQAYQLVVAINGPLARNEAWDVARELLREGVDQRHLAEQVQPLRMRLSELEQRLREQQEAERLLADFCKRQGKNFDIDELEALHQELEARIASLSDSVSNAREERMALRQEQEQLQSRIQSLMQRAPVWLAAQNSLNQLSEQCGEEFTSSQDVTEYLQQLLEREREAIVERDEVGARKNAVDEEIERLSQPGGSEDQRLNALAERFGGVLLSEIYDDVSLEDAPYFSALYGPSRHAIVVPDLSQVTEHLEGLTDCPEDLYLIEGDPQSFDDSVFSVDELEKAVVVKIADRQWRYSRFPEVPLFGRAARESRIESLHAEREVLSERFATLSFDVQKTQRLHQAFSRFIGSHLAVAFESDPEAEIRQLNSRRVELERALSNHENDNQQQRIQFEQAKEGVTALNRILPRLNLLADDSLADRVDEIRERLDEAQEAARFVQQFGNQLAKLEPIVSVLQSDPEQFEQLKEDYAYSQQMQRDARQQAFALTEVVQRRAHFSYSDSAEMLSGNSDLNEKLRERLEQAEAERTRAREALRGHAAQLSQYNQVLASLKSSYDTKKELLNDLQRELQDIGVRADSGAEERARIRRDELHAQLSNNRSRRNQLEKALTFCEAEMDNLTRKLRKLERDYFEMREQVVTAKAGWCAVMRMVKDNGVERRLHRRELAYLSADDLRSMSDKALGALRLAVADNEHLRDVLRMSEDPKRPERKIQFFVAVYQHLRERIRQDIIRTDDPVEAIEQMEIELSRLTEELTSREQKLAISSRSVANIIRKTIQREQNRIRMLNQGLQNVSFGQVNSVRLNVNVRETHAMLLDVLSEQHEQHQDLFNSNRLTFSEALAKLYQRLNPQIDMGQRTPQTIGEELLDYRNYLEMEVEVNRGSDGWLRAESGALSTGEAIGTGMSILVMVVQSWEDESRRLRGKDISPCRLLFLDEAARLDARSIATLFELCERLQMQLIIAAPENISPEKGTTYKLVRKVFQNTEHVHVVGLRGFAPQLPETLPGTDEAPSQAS

B1: ParE-His (enzyme, E. coli, UniProt P20083 1-630, looked up)
chain: MTQTYNADAIEVLTGLEPVRRRPGMYTDTTRPNHLGQEVIDNSVDEALAGHAKRVDVILHADQSLEVIDDGRGMPVDIHPEEGVPAVELILCRLHAGGKFSNKNYQFSGGLHGVGISVVNALSKRVEVNVRRDGQVYNIAFENGEKVQDLQVVGTCGKRNTGTSVHFWPDETFFDSPRFSVSRLTHVLKAKAVLCPGVEITFKDEINNTEQRWCYQDGLNDYLAEAVNGLPTLPEKPFIGNFAGDTEAVDWALLWLPEGGELLTESYVNLIPTMQGGTHVNGLRQGLLDAMREFCEYRNILPRGVKLSAEDIWDRCAYVLSVKMQDPQFAGQTKERLSSRQCAAFVSGVVKDAFILWLNQNVQAAELLAEMAISSAQRRMRAAKKVVRKKLTSGPALPGKLADCTAQDLNRTELFLVEGDSAGGSAKQARDREYQAIMPLKGKILNTWEVSSDEVLASQEVHDISVAIGIDPDSDDLSQLRYGKICILADADSDGLHIATLLCALFVKHFRALVKHGHVYVALPPLYRIDLGKEVYYALTEEEKEGVLEQLKRKKGKPNVQRFKGLGEMNPMQLRETTLDPNTRRLVQLTIDDEDDQRTDAMMDMLLAKKRSEDRRNWLQEKGDMAEIEV
B2: MatP^4A (K71A, Q72A, R75A and R77A) (domain or fragment, E. coli, UniProt P0A8N0 1-132, looked up)
chain: MKYQQLENLESGWKWKYLVKKHREGELITRYIEASAAQEAVDVLLSLENEPVLVNGWIDKHMNPELVNRMAATIAAARKRHFNAEHQHTRKKSIDLEFIVWQRLAGLAQRRGKTLSETIVQLIEDAENKEKY
B3: MatP^4E (K71E, Q72E, R75E and R77E) (domain or fragment, E. coli, UniProt P0A8N0 1-132, looked up)
chain: B2 chain with A71E, A72E, A75E, A77E
B4: ParC, full length (enzyme, E. coli, UniProt P0AFI2 1-752, looked up)
chain: MSDMAERLALHEFTENAYLNYSMYVIMDRALPFIGDGLKPVQRRIVYAMSELGLNASAKFKKSARTVGDVLGKYHPHGDSACYEAMVLMAQPFSYRYPLVDGQGNWGAPDDPKSFAAMRYTESRLSKYSELLLSELGQGTADWVPNFDGTLQEPKMLPARLPNILLNGTTGIAVGMATDIPPHNLREVAQAAIALIDQPKTTLDQLLDIVQGPDYPTEAEIITSRAEIRKIYENGRGSVRMRAVWKKEDGAVVISALPHQVSGARVLEQIAAQMRNKKLPMVDDLRDESDHENPTRLVIVPRSNRVDMDQVMNHLFATTDLEKSYRINLNMIGLDGRPAVKNLLEILSEWLVFRRDTVRRRLNYRLEKVLKRLHILEGLLVAFLNIDEVIEIIRNEDEPKPALMSRFGLTETQAEAILELKLRHLAKLEEMKIRGEQSELEKERDQLQGILASERKMNNLLKKELQADAQAYGDDRRSPLQEREEAKAMSEHDMLPSEPVTIVLSQMGWVRSAKGHDIDAPGLNYKAGDSFKAAVKGKSNQPVVFVDSTGRSYAIDPITLPSARGQGEPLTGKLTLPPGATVDHMLMESDDQKLLMASDAGYGFVCTFNDLVARNRAGKALITLPENAHVMPPVVIEDASDMLLAITQAGRMLMFPVSDLPQLSKGKGNKIINIPSAEAARGEDGLAQLYVLPPQSTLTIHVGKRKIKLRPEELQKVTGERGRRGTLMRGLQRIDRVEIDSPRRASSGDSEE
B5: MukB long hinge (LH, 568-863) (domain or fragment, E. coli, UniProt P22523 568-863, looked up)
chain: SLSDSVSNAREERMALRQEQEQLQSRIQSLMQRAPVWLAAQNSLNQLSEQCGEEFTSSQDVTEYLQQLLEREREAIVERDEVGARKNAVDEEIERLSQPGGSEDQRLNALAERFGGVLLSEIYDDVSLEDAPYFSALYGPSRHAIVVPDLSQVTEHLEGLTDCPEDLYLIEGDPQSFDDSVFSVDELEKAVVVKIADRQWRYSRFPEVPLFGRAARESRIESLHAEREVLSERFATLSFDVQKTQRLHQAFSRFIGSHLAVAFESDPEAEIRQLNSRRVELERALSNHENDNQQQR

Where a chain is given by its changes, count along the chain named. Names may count otherwise.

The target in data set [1] is B4. The data set is described as follows: SEC. (In general: Size exclusion chromatography separates by hydrodynamic size, large species first.)
The data set “native MS” concerns the molecule itself. The data set is described as follows: native MS.
Data set [2] concerns the target T1, MukB, full length, wild type. The data set is described as follows: fluorescence correlation spectroscopy.
Data set [3] has as its target B4. The data set is described as follows: ITC. (In general: Isothermal titration calorimetry measures the heat released or taken up as one component is titrated into another.)
The target of data set [4] is B4. The data set can be described thus: native MS.

With B1, the binding result with ParC, full length [1] is recorded as “binds”.
For orientation: stoichiometry N means a count of units in the complex or per binding partner. Turning to B2, the “stoichiometry N” value in “native MS” was determined as 2.
Same read-out and setting: the value for B3 was 2.
For the molecule B4, the “fold decrease in MatP-Cy3B binding to MukB at a 10-fold excess of competitor” value in data set [2] is 3 fold.
The Kd is the constant that tells how readily two partners part at equilibrium. A lower Kd goes with tighter binding. In the case of B5, in the data set with ParC, full length [3], binding was characterised by a dissociation constant (Kd) of 690 nM, the dH was -7.48 kcal/mol and the “stoichiometry N” value amounted to 0.84. Also, the “stoichiometry N” value in the data set with ParC, full length [4] is 1 ParC dimer per LH dimer. In addition, the “stoichiometry N” value in “native MS” came to 2.
